# Measurements: patent US20240025959A1 (UNIVERSITY OF SOUTHERN CALIFORNIA, published 2024)
# B1: MEKK3 (mouse, endogenous in BMDMs) (enzyme, UniProt Q61084 1-626, looked up)
# chain: MDEQEALDSIMKDLVALQMSRRTRLSGYETMKNKDTGHPNRQSDVRIKFEHNGERRIIAFSRPVRYEDVEHKVTTVFGQPLDLHYMNNELSILLKNQDDLDKAIDILDRSSSMKSLRILLLSQDRNHTSSSPHSGVSRQVRIKPSQSAGDINTIYQAPEPRSRHLSVSSQNPGRSSPPPGYVPERQQHIARQGSYTSINSEGEFIPETSEQCMLDPLSSAENSLSGSCQSLDRSADSPSFRKSQMSRARSFPDNRKECSDRETQLYDKGVKGGTYPRRYHVSVHHKDYNDGRRTFPRIRRHQGNLFTLVPSSRSLSTNGENMGVAVQYLDPRGRLRSADSENALTVQERNVPTKSPSAPINWRRGKLLGQGAFGRVYLCYDVDTGRELASKQVQFDPDSPETSKEVSALECEIQLLKNLQHERIVQYYGCLRDRAEKILTIFMEYMPGGSVKDQLKAYGALTESVTRKYTRQILEGMSYLHSNMIVHRDIKGANILRDSAGNVKLGDFGASKRLQTICMSGTGIRSVTGTPYWMSPEVISGEGYGRKADVWSLGCTVVEMLTEKPPWAEYEAMAAIFKIATQPTNPQLPSHISEHGRDFLRRIFVEARQRPSAEELLTHHFAQLVY
# notes: Endogenous protein in mouse BMDM lysates; also called Map3k3
# B2: caspase 1 (enzyme, human, UniProt P29466 1-404, looked up)
# chain: MADKVLKEKRKLFIRSMGEGTINGLLDELLQTRVLNKEEMEKVKRENATVMDKTRALIDSVIPKGAQACQICITYICEEDSYLAGTLGLSADQTSGNYLNMQDSQGVLSSFPAPQAVQDNPAMPTSSGSEGNVKLCSLEEAQRIWKQKSAEIYPIMDKSSRTRLALIICNEEFDSIPRRTGAEVDITGMTMLLQNLGYSVDVKKNLTASDMTTELEAFAHRPEHKTSDSTFLVFMSHGIREGICGKKHSEQVPDILQLNAIFNMLNTKNCPSLKDKPKVIIIQACRGDSPGVVWFKDSVGVSGNLSLPTTEEFEDDAIKKAHIEKDFIAFCSSTPDNVSWRHPTMGSVFIGRLIEHMQEYACSCDVEEIFRKVRFSFEQPDGRAQMPTTERVTLTRCFYLFPGH
# notes: also called Flag-caspase 1
# B3: AIM2 (human, full length) (other, UniProt O14862 1-343, looked up)
# chain: MESKYKEILLLTGLDNITDEELDRFKFFLSDEFNIATGKLHTANRIQVATLMIQNAGAVSAVMKTIRIFQKLNYMLLAKRLQEEKEKVDKQYKSVTKPKPLSQAEMSPAASAAIRNDVAKQRAAPKVSPHVKPEQKQMVAQQESIREGFQKRCLPVMVLKAKKPFTFETQEGKQEMFHATVATEKEFFFVKVFNTLLKDKFIPKRIIIIARYYRHSGFLEVNSASRVLDAESDQKVNVPLNIIRKAGETPKINTLQTQPLGTIVNGLFVVQKVTEKKKNILFDLSDNTGKMEVLGVRNEDTMKCKEGDKVRLTFFTLSKNGEKLQLTSGVHSTIKVIKAKKKT
# notes: also called Flag-AIM2; GFP-AIM2
# B4: ATG9A (mouse, endogenous in BMDMs) (other, UniProt Q68FE2 2-839, looked up)
# chain: AQFDTEYQRLEASYSDSPPGEEDLLVHVAEGSKSPWHHIENLDLFFSRVYNLHQKNGFTCMLIGEMFELMQFLFVVAFTTFLVSCVDYDILFANKMVNHSLHPTEPVKVTLPDAFLPAQVCSARIQENGSLITILVIAGVFWIHRLIKFIYNICCYWEIHSFYLHALRIPMSALPYCTWQEVQARIVQTQKEHQICIHKRELTELDIYHRILRFQNYMVALVNKSLLPLRFRLPGLGEVVFFTRGLKYNFELILFWGPGSLFLNEWSLKAEYKRGGQRLELAQRLSNRILWIGIANFLLCPLILIWQILYAFFSYAEVLKREPGALGARCWSLYGRCYLRHFNELEHELQSRLNRGYKPASKYMNCFLSPLLTLLAKNGAFFAGSILAVLIALTIYDEDVLAVEHVLTTVTLLGVTVTVCRSFIPDQHMVFCPEQLLRVILAHIHYMPDHWQGNAHRSQTRDEFAQLFQYKAVFILEELLSPIVTPLILIFCLRPRALEIIDFFRNFTVEVVGVGDTCSFAQMDVRQHGHPQWLSGGQTEASVYQQAEDGKTELSLMHFAITNPGWQPPRESTAFLGFLKEQVQRDGAAAGLAQGGLLPENALFTSIQSLQSESEPLSLIANVVAGSSCRGPSLSRDLQGSRHRADVASALRSFSPLQPGAAPQGRVPSTMTGSGVDARTASSGSSVWEGQLQSLVLSEYASTEMSLHALYMHQLHKQQTQAEPERHVWHRRESDESGESAPEEGGEGARAPQPIPRSASYPCATPRPGAPETTALHGGFQRRYGGITDPGTVPRGPSHFSRLPLGGWAEDGQPASRHPEPVPEEGSEDELPPQVHKV
# notes: Endogenous protein in mouse BMDM lysates
# B5: AIM2 (mouse, endogenous in BMDMs) (other, UniProt Q91VJ1 1-354, looked up)
# chain: MESEYREMLLLTGLDHITEEELKRFKYFALTEFQIARSTLDVADRTELADHLIQSAGAASAVTKAINIFQKLNYMHIANALEEKKKEAERKLMTNTKKRGTQKVENRSQAENCSAASATRSDNDFKEQAATEVCPQAKPQKKQMVAEQEAIREDLQKDPLVVTVLKAINPFECETQEGRQEIFHATVATETDFFFVKVLNAQFKDKFIPKRTIKISNYLWHSNFMEVTSSSVVVDVESNHEVPNNVVKRARETPRISKLKIQPCGTIVNGLFKVQKITEEKDRVLYGIHDKTGTMEVLVLGNPSKTKCEEGDKIRLTFFEVSKNGVKIQLKSGPCSFFKVIKAAKPKTDMKSVE
# B6: SEC22A (other, human, UniProt Q96IW7 1-307, looked up)
# chain: MSMILSASVIRVRDGLPLSASTDYEQSTGMQECRKYFKMLSRKLAQLPDRCTLKTGHYNINFISSLGVSYMMLCTENYPNVLAFSFLDELQKEFITTYNMMKTNTAVRPYCFIEFDNFIQRTKQRYNNPRSLSTKINLSDMQTEIKLRPPYQISMCELGSANGVTSAFSVDCKGAGKISSAHQRLEPATLSGIVGFILSLLCGALNLIRGFHAIESLLQSDGDDFNYIIAFFLGTAACLYQCYLLVYYTGWRNVKSFLTFGLICLCNMYLYELRNLWQLFFHVTVGAFVTLQIWLRQAQGKAPDYDV
# Assays:
# [1] = molecular target: B4; experiment: endogenous co-IP; BMDM lysates (untreated or LPS) immunoprecipitated with MEKK3 antibodies, immunoblot (FIG. 12D)
# [2] = molecular target: T1, Beclin 2 (human, full length) (human, UniProt A8MW95 1-431); experiment: co-IP with anti-Flag beads and immunoblot; HEK293T cells co-transfected with HA-Beclin 2 and a Flag-tagged plasmid (FIG. 25A)
# T1 construct: All tagged and endogenous human forms are kept under this one id; the form used is named under assay; also called BECN2; Flag-Beclin 2
# T1 sequence: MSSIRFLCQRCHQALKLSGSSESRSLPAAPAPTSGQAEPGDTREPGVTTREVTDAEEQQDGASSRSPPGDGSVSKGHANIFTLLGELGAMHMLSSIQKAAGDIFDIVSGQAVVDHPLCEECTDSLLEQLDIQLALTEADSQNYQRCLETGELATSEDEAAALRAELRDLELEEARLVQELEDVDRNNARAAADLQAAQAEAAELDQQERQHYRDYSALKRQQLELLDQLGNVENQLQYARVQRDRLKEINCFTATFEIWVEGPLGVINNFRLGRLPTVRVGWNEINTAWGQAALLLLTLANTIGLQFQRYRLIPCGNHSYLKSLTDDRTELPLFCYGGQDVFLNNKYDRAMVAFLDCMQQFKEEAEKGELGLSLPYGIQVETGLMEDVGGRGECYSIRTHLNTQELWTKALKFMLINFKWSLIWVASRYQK
# Method: Cell lysates were immunoprecipitated with anti-Flag beads and immunoblotted using indicated antibodies. […] Cell lysates were immunoprecipitated with anti-Flag beads and immunoblotted using indicated antibodies.
# Whole cell lysates obtained 24 h post-transfection or via ligand stimulation were obtained using RIPA lysis buffer and shook on ice for 15 min. The HEK293T cell lysates were immunoprecipitated with anti-Flag conjugated beads (BioLegend) at 4° C. overnight.
# ATG9A (human) [3] = molecular target: T2, ATG9A (human) (human, UniProt Q7Z3C6 1-839); experiment: co-IP with anti-Flag beads; WT, BECN2 KO and ULK1 KO HEK293T cells co-transfected with HA-ATG9A and Flag-AIM2 (FIG. 30D)
# T2 construct: Transmembrane protein; co-IP from RIPA lysates; Tagged and endogenous human forms kept under one id; also called Flag-ATG9A; HA-ATG9A
# T2 sequence (looked up): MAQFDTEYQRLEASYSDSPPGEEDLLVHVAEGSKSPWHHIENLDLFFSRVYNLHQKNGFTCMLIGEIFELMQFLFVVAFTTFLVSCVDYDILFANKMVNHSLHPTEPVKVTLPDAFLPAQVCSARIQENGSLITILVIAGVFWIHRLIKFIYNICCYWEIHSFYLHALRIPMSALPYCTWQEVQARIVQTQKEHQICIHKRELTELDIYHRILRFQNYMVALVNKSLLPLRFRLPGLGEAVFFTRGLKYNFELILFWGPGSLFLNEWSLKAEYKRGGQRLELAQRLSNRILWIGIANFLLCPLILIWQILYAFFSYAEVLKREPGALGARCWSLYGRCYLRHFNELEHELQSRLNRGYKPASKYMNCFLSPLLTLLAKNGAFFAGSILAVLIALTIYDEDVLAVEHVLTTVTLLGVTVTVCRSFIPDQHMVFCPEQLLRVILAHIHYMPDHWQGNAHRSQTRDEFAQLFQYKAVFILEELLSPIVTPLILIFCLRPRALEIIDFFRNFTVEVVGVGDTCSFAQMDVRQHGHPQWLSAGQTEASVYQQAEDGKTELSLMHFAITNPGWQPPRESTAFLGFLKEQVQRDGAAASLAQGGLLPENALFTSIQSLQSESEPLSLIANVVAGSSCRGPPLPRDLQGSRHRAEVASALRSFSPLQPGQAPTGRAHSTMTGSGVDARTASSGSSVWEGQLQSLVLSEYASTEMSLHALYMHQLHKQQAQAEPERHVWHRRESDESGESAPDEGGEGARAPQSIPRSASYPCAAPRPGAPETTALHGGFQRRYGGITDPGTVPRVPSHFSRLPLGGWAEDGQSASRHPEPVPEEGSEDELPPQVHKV
# Method: Pearson's correlation coefficient for colocalization was analyzed using Image J Coloc 2. Graph represents mean±s.e.m. (at least 30 cells were analyzed per condition). Representative images showing the colocalization were obtained using confocal microscopy. Scale bar: 5 μm. […] Pearson's correlation coefficient for colocalization was analyzed using Image J Coloc 2. Graph represents mean±s.e.m. (at least 30 cells were analyzed per condition). Representative images showing the colocalization were obtained using confocal microscopy. Scale bar: 5 μm. […] Data are representative of at least three independent experiments. […] MVBs, multivesicular bodies.
# [4] = molecular target: NLRP3 (mouse, endogenous in BMDMs) (mouse, UniProt Q8R4B8 1-1033); experiment: endogenous co-IP; WT and Becn2 KO BMDM lysates (untreated or LPS 3 h) immunoprecipitated with ATG9A antibodies, immunoblot (FIG. 30F)
# Sequence of NLRP3 (mouse, endogenous in BMDMs) (Q8R4B8 whole entry): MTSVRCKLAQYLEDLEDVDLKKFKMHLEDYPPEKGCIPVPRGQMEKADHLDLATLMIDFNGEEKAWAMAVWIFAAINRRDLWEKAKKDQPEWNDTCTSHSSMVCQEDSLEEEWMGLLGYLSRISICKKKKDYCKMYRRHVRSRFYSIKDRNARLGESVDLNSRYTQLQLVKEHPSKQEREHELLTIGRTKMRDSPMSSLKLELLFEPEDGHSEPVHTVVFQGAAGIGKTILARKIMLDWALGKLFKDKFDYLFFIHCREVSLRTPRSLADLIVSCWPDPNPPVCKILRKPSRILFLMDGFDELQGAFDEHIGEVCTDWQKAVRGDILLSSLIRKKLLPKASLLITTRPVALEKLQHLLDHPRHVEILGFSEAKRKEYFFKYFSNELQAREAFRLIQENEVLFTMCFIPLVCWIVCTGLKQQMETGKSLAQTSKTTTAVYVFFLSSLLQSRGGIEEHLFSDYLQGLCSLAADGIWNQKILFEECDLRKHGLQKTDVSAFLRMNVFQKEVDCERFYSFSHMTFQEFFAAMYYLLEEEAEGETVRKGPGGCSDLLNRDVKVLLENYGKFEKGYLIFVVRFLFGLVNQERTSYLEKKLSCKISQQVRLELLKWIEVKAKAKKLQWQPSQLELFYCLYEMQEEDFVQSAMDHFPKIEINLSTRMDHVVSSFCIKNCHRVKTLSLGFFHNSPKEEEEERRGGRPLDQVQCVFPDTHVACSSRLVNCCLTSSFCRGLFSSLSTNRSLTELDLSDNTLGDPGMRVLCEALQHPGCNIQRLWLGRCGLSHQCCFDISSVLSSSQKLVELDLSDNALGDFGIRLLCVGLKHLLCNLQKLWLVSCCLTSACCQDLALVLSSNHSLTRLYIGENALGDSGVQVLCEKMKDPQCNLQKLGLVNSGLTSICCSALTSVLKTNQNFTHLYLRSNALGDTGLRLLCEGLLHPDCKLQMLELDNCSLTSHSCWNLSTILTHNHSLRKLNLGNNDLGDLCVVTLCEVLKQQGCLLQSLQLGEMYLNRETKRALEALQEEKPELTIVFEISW
# [5] = molecular target: B4; experiment: as above
# ATG9A (human) [6] = molecular target: T2, ATG9A (human); experiment: endogenous co-IP; WT and BECN2 KO THP-1 cell lysates immunoprecipitated with ATG9A antibodies, immunoblot (FIG. 32D)
# Method: (§1) Whole cell lysates obtained 24 h post-transfection or via ligand stimulation were obtained using RIPA lysis buffer and shook on ice for 15 min. The HEK293T cell lysates were immunoprecipitated with anti-Flag conjugated beads (BioLegend) at 4° C. overnight. […] The beads were washed five times with RIPA lysis buffer, and immunoprecipitates were eluted with 2×SDS loading buffer and subjected to SDS-PAGE gel electrophoresis, followed by immunoblotting. The secondary antibody (Veriblot for IP detection, HRP-conjugated) that only recognized native IgG but not denatured IgG was applied for immunoblotting of endogenous proteins in immunoprecipitates.
# [7] = molecular target: T1, Beclin 2 (human, full length); experiment: co-IP with anti-Flag beads and immunoblot; HEK293T cells co-transfected with HA-Beclin 2 and Flag-tagged SNARE or RAB proteins (FIG. 32A)
# Method: as §1
binder,measurement,setting,value
B1,binding result,[1],binds
B2,binding result,[2],binds
B3,binding result,ATG9A (human) [3],binds
B4,binding result,[4],binds
B5,binding result,[5],binds
B6,binding result,ATG9A (human) [6],binds
same,binding result,[7],binds
